Target: H7N9亚型禽流感病毒血凝素(HA)，野生型病毒上 (H7N9亚型禽流感病毒)
Assay: cell-based or functional assay

B1: H7N9-NeuAb (antibody, V domains shown)
VH: QVQLQQPRAELVMPGASVRMSCQASGYTFTDFWIHWVKQRPGQGLEWIGAIDTSDSYTTYNQNFRGKASLTVDESSSTAYMQLSSLTSEDSAVYYCARLDDGFYNYAMDYWGQGTSVTVSS
VL: NIMMTQSPSSLAVSAGEKVTLNCKSSQSVLNSSNQKNYLAWYQQRPGQSPKLLIYWASTREAGVPDRFTGSGSGTDFTLTISSVKAEDLAVYYCHQYLSSYTFGGGTKLKIK
Binder B1 has an HI 终点浓度 of 1.5 µg/mL, an HI效价 of 512 and a 中和 终点浓度 of 0.15 µg/mL. The 中和效价 was 5120.

— patent CN116041496A
